{"source": "IntAct's records for PubMed 10814541", "parents": {"B1": {"name": "Thioredoxin (Homo sapiens), P10599 (parent)", "chain": "MVKQIESKTAFQEALDAAGDKLVVVDFSATWCGPCKMIKPFFHSLSEKYSNVIFLEVDVDDCQDVASECEVKCMPTFQFFKKGQKVGEFSGANKEKLEATINELV", "partner": "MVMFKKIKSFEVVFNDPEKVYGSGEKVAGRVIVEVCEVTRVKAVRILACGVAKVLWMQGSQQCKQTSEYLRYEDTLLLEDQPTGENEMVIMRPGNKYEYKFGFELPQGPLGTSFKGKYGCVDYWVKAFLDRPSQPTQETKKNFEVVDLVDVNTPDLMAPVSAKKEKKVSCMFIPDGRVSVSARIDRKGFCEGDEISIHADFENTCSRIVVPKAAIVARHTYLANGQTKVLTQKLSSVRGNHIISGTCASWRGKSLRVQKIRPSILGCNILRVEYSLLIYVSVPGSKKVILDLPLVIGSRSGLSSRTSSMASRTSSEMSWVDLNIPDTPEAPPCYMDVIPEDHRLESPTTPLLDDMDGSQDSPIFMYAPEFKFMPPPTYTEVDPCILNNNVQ"}}}
{"variants_of": "B1", "conditions": "with txnip_human TXNIP"}
{"variant": "C32S;C35S", "effect of a mutation on the interaction": "decreasing interaction"}
